Measurements reported in patent publication US20220332804A1 (CSL INNOVATION, published 2022).
Where a chain is given by its changes, count along the chain named.

Tests used:
Assay in all cases: SPR; KD relative to WT C2;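 further: biacore SPR at 37 °C, anti-C2 mAbs captured on an anti-human IgG chip, alanine or serine C2 surface mutants tested, KD from 1:1 fit compared with wild-type C2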
human C2 G677A = molecular target: T1, human C2 G677A (human, UniProt P06681 21-752)
T1 sequence: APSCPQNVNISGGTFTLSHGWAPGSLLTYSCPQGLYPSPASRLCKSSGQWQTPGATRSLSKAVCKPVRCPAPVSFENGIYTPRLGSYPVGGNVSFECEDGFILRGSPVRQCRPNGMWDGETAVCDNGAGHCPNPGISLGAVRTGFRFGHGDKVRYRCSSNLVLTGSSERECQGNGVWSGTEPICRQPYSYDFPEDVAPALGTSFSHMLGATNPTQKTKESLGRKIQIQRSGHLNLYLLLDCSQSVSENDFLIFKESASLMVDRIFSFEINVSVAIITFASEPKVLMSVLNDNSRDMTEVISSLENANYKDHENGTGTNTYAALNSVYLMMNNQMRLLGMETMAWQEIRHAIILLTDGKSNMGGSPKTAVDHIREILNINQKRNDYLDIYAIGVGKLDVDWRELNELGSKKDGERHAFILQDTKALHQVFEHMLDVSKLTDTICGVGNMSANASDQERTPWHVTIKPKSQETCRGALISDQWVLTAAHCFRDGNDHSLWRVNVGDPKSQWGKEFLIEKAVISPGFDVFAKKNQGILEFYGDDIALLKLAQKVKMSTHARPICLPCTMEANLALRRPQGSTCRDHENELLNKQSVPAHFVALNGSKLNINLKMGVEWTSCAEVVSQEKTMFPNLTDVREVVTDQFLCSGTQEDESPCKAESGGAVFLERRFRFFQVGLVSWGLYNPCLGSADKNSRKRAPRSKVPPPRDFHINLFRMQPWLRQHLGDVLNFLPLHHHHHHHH
Experimental: (§1) Surface plasmon resonance (SPR, Biacore) was used for all binding affinity analyses. In brief, goat anti-human IgG was directly immobilised onto the carboxymethyl dextran surface of CM5 sensorchips to approximately 12,000 RU using standard NHS/EDC chemistry at pH 5. The immobilised antibody surface was pre-conditioned with ten injections of polyclonal human IgG (Privigen 60 s) prepared at 1 μg/mL. Ligands (anti-C2 mAbs) were captured at the beginning of each cycle as described below. An adjacent spot or flow cell in which only Polyclonal IgG was capture was used as a reference surface. The goat anti-human IgG Fc antibody surface was regenerate in 100 mM H3PO4, injected for 45 seconds at the end of each cycle. Experiments were performed at 37° C. and the flow rate of each experiment was kept constant at 30 μL/min.
(§2) Sensogram data was double-referenced against a reference anti-IgG surface (i.e. minus anti-C2 mAb) and blank buffer injections obtained within each experiment. The binding data was fit to 1:1 (kinetic or steady-state) model using local Rmax and null refraction index (RI=0) when appropriate. Buffers and solutions were filtered (0.22 μm) prior to use.
(§3) The C2 mutants were designed to test the importance of surface exposed residues for antibody binding. Residues located at either the N-terminal VWA domain or C-terminal protease domain of C were replaced by either alanine or serine and tested for binding against anti-C2 antibodies.

human complement C2 = molecular target: T2, human complement C2 (human, UniProt P06681 21-752)
T2 construct: Recombinant full-length human C2 with C-terminal 8x His tag, purified from Expi293F supernatant; also called human C2; huC2
T2 sequence: T1 sequence with A657G
Experimental: as §1, §2, §3

human C2 G427A = molecular target: T3, human C2 G427A (human, UniProt P06681 21-752)
T3 sequence: T1 sequence with G407A, A657G
Experimental: as §1, §2, §3

human C2 K457A = molecular target: T4, human C2 K457A (human, UniProt P06681 21-752)
T4 sequence: T1 sequence with K437A, A657G
Experimental: as §1, §2, §3

- Fold diff (human C2 G677A): 1 fold
- Fold diff (human complement C2): 1 fold
- Fold diff (human C2 G427A): 0 fold
- Fold diff (human C2 K457A): 1 fold
B1: RF16-214 (antibody, V domains shown)
VH: EVQLLESGGGLVQPGGSLRLSCAASGFTFSWYQMMWVRQAPGKGLEWVSRIYPSGGGTAYADSVKGRFTISRDNSKNTLYLQMNSLRAEDTAVYYCARDAGYGDNWGQGTLVTVSS
VL: QSALTQPPSVSVSPGQTASITCSGDKLGEKYASWYQQKAGQSPVMVIYQDRKRPSGIPERFSGSNSGNTATLTISGTQAMDEADYYCQAWDTRAVVFGGGTKLTVLG
